In the supplement of paper PMC11208486:

Assays:
[1] = specific initial activity, cyclohex-2-enone reduction (U mg-1); higher = more active; details: co-solvent: methanol
Procedure: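 Specific initial activity of purified ene reductases with 10 mM cyclohex-2-enone and 0.2 mM NAD(P)H in 50 mM sodium phosphate pH 7.4 with 0-45% (v/v) ethanol or methanol, at set reaction temperatures of 25-45 °C. NAD(P)H depletion was followed at 340 nm for 480 s, in triplicate.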

[2] = as above
Procedure: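 Purified His-tagged ene reductases in 50 mM sodium phosphate pH 7.4 with 0-30% (v/v) organic co-solvent. Melting temperature was measured by the ThermoFMN assay (FMN fluorescence, 20-90 °C at 1 °C/min, inflection point, triplicate). Specific initial activity was measured with 10 mM cyclohex-2-enone and 0.2 mM NAD(P)H (NADH for LacER) as A340 depletion, at room temperature (DMSO, 2-propanol, n-propanol) or 25 °C (EtOH, MeOH), in triplicate. The TsOYE Tm is above the 90 °C measurement range.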

MNPKYKPLFEPFTFKSGVTINNRIAVAPMTHYASNEDGTISEAELDYIIPRSKEMGMVITACANVTPDGKAFPGQPAIHDDSNIPGLKKLAQAIQAQGAKAVVQIHHGGIECPSELVPQQDVVGPSDVFDNGKQIARALTEEEVENIVKAFGEATRRAIEAGFDGVEIHGANGYLIQQFYSPKTNQRTDRWGGSDEKRLAFPLAIVDEVKKAASEHAKGAFLVGYRLSPEEPETPGLTMTETYTLVDALGDKELDYLHISLMDVNSKARRGADPTRTRMDLLNERVGNKVPLIAVGSIHSADDALAVIENGIPLVAMGREILVDPNWTVKVKEGREKQIETVIKGTDKEKYHLPEPLWQAIVNTQGWVPYKD
[1]
Details | specific initial activity
co-solvent concentration (% v/v): 20, reaction temperature 30 °C | 0.4
co-solvent concentration (% v/v): 20, reaction temperature 35 °C | 0.1
co-solvent concentration (% v/v): 20, reaction temperature 40 °C | 0.03
co-solvent concentration (% v/v): 25, reaction temperature 25 °C | 0.6
co-solvent concentration (% v/v): 25, reaction temperature 30 °C | 0.4
co-solvent concentration (% v/v): 25, reaction temperature 35 °C | 0.05
co-solvent concentration (% v/v): 25, reaction temperature 40 °C | 0.02
co-solvent concentration (% v/v): 30, reaction temperature 25 °C | 0.55
co-solvent concentration (% v/v): 30, reaction temperature 30 °C | 0.28
co-solvent concentration (% v/v): 30, reaction temperature 35 °C | 0.04
co-solvent concentration (% v/v): 30, reaction temperature 40 °C | 0.03
co-solvent concentration (% v/v): 35, reaction temperature 25 °C | 0.44
co-solvent concentration (% v/v): 35, reaction temperature 30 °C | 0.21
co-solvent concentration (% v/v): 35, reaction temperature 35 °C | 0.02
co-solvent concentration (% v/v): 35, reaction temperature 40 °C | 0.02
co-solvent concentration (% v/v): 40, reaction temperature 25 °C | 0.2
co-solvent concentration (% v/v): 40, reaction temperature 30 °C | 0.11
co-solvent concentration (% v/v): 40, reaction temperature 35 °C | 0.07
co-solvent concentration (% v/v): 40, reaction temperature 40 °C | 0.03
co-solvent concentration (% v/v): 45, reaction temperature 25 °C | 0.04
co-solvent concentration (% v/v): 45, reaction temperature 30 °C | 0.04
co-solvent concentration (% v/v): 45, reaction temperature 35 °C | 0.04
co-solvent concentration (% v/v): 45, reaction temperature 40 °C | 0.05

specific initial activity, [2]
Details | co-solvent concentration (% v/v): 0 | co-solvent concentration (% v/v): 5 | co-solvent concentration (% v/v): 10 | co-solvent concentration (% v/v): 15 | co-solvent concentration (% v/v): 20 | co-solvent concentration (% v/v): 25 | co-solvent concentration (% v/v): 30
co-solvent: 2-propanol | 5.75 | 6.02 | 6.11 | 6.21 | 6.17 | 5.81 | 5.26
co-solvent: dimethyl sulfoxide | 4.09 | 4.4 | 4.34 | 4.41 | 4.2 | 4.35 | 4.2
co-solvent: ethanol | 5.73 | 5.9 | 6.22 | 6.67 | 6.21 | 6.62 | 5.96
co-solvent: methanol | 5.71 | 6.14 | 5.62 | 5.36 | 5.05 | 5.09 | 4.27
co-solvent: n-propanol | 5.25 | 5.2 | 4.82 | 4.55 | 4.07 | 3.69 | 2.94
